A short description of data set [1]: Comparative study between intravenous and intratracheal administration of Org 42675 (plasma concentration via anti-Xa activity, amidolytic S2222). In kind it is in vivo, male Wistar rats. Conditions: male, Wistar, rat; for AUC(0-inf) / AUC(0-t) / Cmax / bioavailability: 100 nmol/kg; for bioavailability: other: intratracheal, 100 nmol/kg intratracheal vs i.v. (100%), read-out: F (% bioavailabilty). The method, then: The test was carried out in male Wistar rats of 300-400 gr. The rats were anaesthetised by inhalation of a mixture of O2/N2O/isoflurane, after which the right jugular vein was cannulated. Translumination of the neck enabled visibility of the vocal cords and an oral needle was inserted when the vocal cords were open after which 100 μl/300 gr body weight of a solution prepared from the pharmaceutical formulation of Example 1, diluted with an aqueous 0.9% sodium chloride solution, containing 300 nmol of Org 42675/ml was instilled at approximately 1 cm before the bifurcation of the trachea. The same solution and dose was also used to perform the i.v. study. After i.v. administration blood was sampled at 1, 6, 15, 30 and 60 minutes and after 2, 4, 7 and 24 hours. After intra-tracheal administration blood was sampled at 0.5-1-2-4-7 and 24 hours after administration. Blood was centrifuged and the plasma was siphoned off and stored at −20° C. until use. The concentration of Org 42675 was measured amidolytically with S2222 (Chromogenix, Chromogenics Ltd, Molndal, Sweden) by determination of the anti-Xa activity based on the method of Teien and Lie in the obtained plasma samples against a calibration curve which was made of the stock solution of 300 nmol/ml itself. (Teien A N, Lie M. Evaluation of an amidolytic heparin assay method increased sensitivity by adding purified antithrombin III. Thromb. Res. 1977, 10: 399-410). The concentration in the samples was expressed in nmol/ml and the kinetic parameters were calculated with the noncompartment model of WinNonlin (see Tables 1 and 2). After intratracheal administration the maximum concentration was already obtained at 0.5 hour after administration which was also the first time point of blood collection.

For data set [2] the following is noted: in vivo; cited from earlier work.
The conditions of data set [3]: rabbit, in vivo; cited from earlier work.
Setting [4] is: inhaled or intranasal, 100 nmol/kg intratracheal, individual rats.
Setting [5] is: inhaled or intranasal, 100 nmol/kg intratracheal, mean (n=3).
[6] abbreviates: iv, 100 nmol/kg intravenous, individual rats.
[7] abbreviates: iv, 100 nmol/kg intravenous, mean (n=2).

Data on two compounds can be found in patent publication US20090227528A1, “Pulmonary administration of an antithrombotic compound” (priority 2004, published 2009).

Like-named read-outs stand apart in the source and are kept apart here.

Take `COc1cc(C)c(S(=O)(=O)NC(CC(=O)NCCCC(=O)NCCOCCOCCOCCO[C@H]2[C@H](OC)[C@@H](OC)[C@@H](O[C@H]3[C@H](OC)[C@@H](OC)[C@H](O[C@H]4[C@H](OS(=O)(=O)O)[C@@H](OS(=O)(=O)O)[C@@H](O[C@H]5[C@H](OC)[C@@H](OC)[C@H](O[C@H]6[C@H](OC)[C@@H](OS(=O)(=O)O)[C@@H](OC)O[C@@H]6COS(=O)(=O)O)O[C@H]5C(=O)O)O[C@@H]4COS(=O)(=O)O)O[C@@H]3C(=O)O)O[C@@H]2COS(=O)(=O)O)C(=O)NC(Cc2ccc(C(=N)N)cc2)C(=O)N2CCCCC2)c(C)c1C` (stereo partly drawn) [Org 42675]: in data set [1] (setting [4]), the Tmax was 30 min. Besides, the AUC(0-inf) in data set [1] (setting [4]) stood at 5.53 µM·h; in data set [1] (setting [5]), 5.07 ± 0.24 µM·h; in data set [1] (setting [6]), 8.46 µM·h; in data set [1] (setting [7]) it was 7.32 ± 1.03 µM·h. For the same compound, the AUC(0-t) in data set [1] (setting [4]) came out at 5.4 µM·h; in data set [1] (setting [5]) it was 4.91 µM·h; in data set [1] (setting [6]), 8.35 µM·h; in data set [1] (setting [7]) it was 7.32 µM·h. The Cmax was determined as 640 nM in data set [1] (setting [4]), 770 nM in data set [1] (setting [5]), 3180 nM in data set [1] (setting [6]) and 2930 nM in data set [1] (setting [7]). Besides, the bioavailability stood at 75.5% in data set [1] (individual rats) and 71 ± 3% in data set [1] (mean (n=3)).
On to heparin, for which, in data set [2], the Absolute bioavailability was 35-60%. In data set [3], the bioavailability result is “low” and the pharmacokinetics entry was “poor”.
